Measurements from US7488590B2, “Modified peptides as therapeutic agents” (Amgen Inc., priority 1998, dated 2009).
Where “and” joins values, the source holds several entries; their conditions need not be identical. Equal values may be shown once. Entries after “also recorded” stand apart in the source; their conditions may differ. Where no end group is shown, it is not given here. Side-chain parts run from the residue outwards. maleimide = maleimide-containing PEG attached to the Cys side-chain thiol; PEG = not defined here

Columns and labels:
human mpl receptor = biological target: T1, human mpl receptor (Homo sapiens, UniProt P40238); test: TPO in vitro bioassay: mitogenic (cell-proliferation) assay in IL-3 dependent murine 32D cells transfected with human mpl receptor; format: cell-based
T1 construct: murine 32D cells transfected with the full-length c-Mpl; expressed in transfected cells; host or cells: IL-3 dependent clone of murine 32D cells
T1 sequence (P40238 26-635): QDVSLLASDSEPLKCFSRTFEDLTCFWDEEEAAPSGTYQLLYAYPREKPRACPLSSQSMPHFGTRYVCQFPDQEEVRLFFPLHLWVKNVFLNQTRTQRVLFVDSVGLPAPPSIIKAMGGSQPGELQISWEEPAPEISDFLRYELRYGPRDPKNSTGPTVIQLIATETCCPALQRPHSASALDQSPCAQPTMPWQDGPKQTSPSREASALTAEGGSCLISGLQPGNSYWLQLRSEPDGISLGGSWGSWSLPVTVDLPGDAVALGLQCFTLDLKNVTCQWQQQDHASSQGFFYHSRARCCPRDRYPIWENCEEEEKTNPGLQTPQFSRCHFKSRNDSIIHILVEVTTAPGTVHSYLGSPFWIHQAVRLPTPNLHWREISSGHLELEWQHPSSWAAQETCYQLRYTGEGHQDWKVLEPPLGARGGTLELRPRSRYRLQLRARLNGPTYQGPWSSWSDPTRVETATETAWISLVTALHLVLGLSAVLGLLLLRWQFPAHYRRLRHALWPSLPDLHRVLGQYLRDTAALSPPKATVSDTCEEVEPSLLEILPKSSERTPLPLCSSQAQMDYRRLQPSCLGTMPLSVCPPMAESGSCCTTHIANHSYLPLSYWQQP
Description: Bioactivity assay. The TPO in vitro bioassay is a mitogenic assay utilizing an IL-3 dependent clone of murine 32D cells that have been transfected with human mpl receptor. This assay is described in greater detail in WO 95/26746. Cells are maintained in MEM medium containing 10% Fetal Clone II and 1 ng/ml mIL-3. Prior to sample addition, cells are prepared by rinsing twice with growth medium lacking mIL-3. An extended twelve point TPO standard curve is prepared, ranging from […]. Four dilutions, estimated to fall within the linear portion of the standard curve, (100 to 125 pg/ml), are prepared for each sample and run in triplicate. A volume of 100 μl of each dilution of sample or standard is added to appropriate wells of a 96 well microtiter plate containing 10,000 cells/well. After forty-four hours at 37° C. and 10% CO2, MTS (a tetrazolium compound which is bioreduced by cells to a formazan) is added to each well. Approximately six hours later, the optical density is read on a plate reader at 490 nm. A dose response curve (log TPO concentration vs. O.D.-Background) is generated and linear regression analysis of points which fall in the linear portion of the standard curve is performed. Concentrations of unknown test samples are determined using the resulting linear equation and a correction for the dilution factor.
The resulting peptides are readily accessible by conventional solid phase peptide synthesis methods (Merrifield (1963), J. Amer. Chem. Soc. 85: 2149) with either Fmoc or t-Boc chemistry. […] This might be due to differences in the conditions used in the two assays. […] It is interesting to note that a wide range of length is tolerated by the linker. The optimal linker between tandem peptides with the selected TMP monomers apparently is composed of 8 glycines.

IL-1R = biological target: T2, IL-1R (Homo sapiens, UniProt P14778); test: IL-1 Receptor Binding competition assay (IGEN system); conditions: 0.4 nM biotin-IL-1R + 15 nM IL-1-TAG, competitor 3 uM to 1.5 pM
T2 sequence (P14778 18-569): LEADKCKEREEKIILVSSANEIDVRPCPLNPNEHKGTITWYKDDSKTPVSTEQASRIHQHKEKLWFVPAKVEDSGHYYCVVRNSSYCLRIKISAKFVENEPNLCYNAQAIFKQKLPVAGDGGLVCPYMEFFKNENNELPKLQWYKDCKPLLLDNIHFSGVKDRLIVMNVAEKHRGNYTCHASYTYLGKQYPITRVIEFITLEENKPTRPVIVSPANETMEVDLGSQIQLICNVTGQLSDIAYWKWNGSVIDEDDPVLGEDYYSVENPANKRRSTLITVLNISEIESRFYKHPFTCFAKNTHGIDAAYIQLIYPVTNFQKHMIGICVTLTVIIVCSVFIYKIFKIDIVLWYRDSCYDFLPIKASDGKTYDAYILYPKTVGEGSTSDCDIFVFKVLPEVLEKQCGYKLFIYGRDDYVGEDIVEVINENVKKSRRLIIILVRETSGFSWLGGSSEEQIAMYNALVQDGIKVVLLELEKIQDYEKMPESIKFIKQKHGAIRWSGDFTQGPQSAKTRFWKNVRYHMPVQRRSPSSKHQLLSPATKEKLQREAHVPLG
Description: Characterization of Fc-IL-1 antagonist peptide and IL-1 antagonist peptide-Fc activity. IL-1 Receptor Binding competition between IL-1β, IL-1RA and Fc-conjugated IL-1 peptide sequences was carried out using the IGEN system. Reactions contained 0.4 nM biotin-IL-1R+15 nM IL-1-TAG+3 uM competitor+20 ug/ml streptavidin-conjugate beads, where competitors were IL-1RA, Fc-IL-1 antagonist, IL-1 antagonist-Fc). Competition was assayed over a range of competitor concentrations from 3 uM to 1.5 pM.

[1] = TPO-dependent cell-proliferation assay, 32D cells transfected with c-Mpl

Substance | in vitro bioactivity (in words) (human mpl receptor; [1]) | further results
peptide 16: TMP tandem repeat in which the two Trp residues were replaced by Ala (IEGPTLRQWLAARAGGGGGGGGIEGPTLRQWLAARA; TPO-MIMETIC PEPTIDES) | inactive | –
IL-1RA: competitor in the IL-1 receptor binding competition assay | – | EC50 (IL-1R): 2.65 nM; Ki (IL-1R): 1.41 nM
peptide 20: PEGylated peptide (SEQ ID NO: 4); Cys side chain in linker modified by maleimide-containing PEG (IEGPTLRQWLAARAGGGC([maleimide-PEG])GGGGIEGPTLRQWLAARA; reading uncertain) | even higher in vitro bioactivity as compared to their unpegylated counterparts | –
peptide 13: TMP tandem repeat with a linker composed of GPNG (IEGPTLRQWLAARAGPNGIEGPTLRQWLAARA; TPO-MIMETIC PEPTIDES) | – | increase in potency as compared to the monomer (human mpl receptor; TPO-dependent cell-proliferation assay, 32D cells transfected with c-Mpl, versus TMP monomer): about 100 fold; decrease in activity versus the equivalent GGGG-linked analog (human mpl receptor; cell-proliferation assay, versus tandem repeat with 4-Gly linker): > 10 fold and 10 fold
IEGPTLRQWLAARA (TMP) [reference compound] | relatively low biopotency | –
21: TMP tandem repeat with potential glycosylation motif NGS in its 8-amino acid linker (IEGPTLRQWLAARAGGGNGSGGIEGPTLRQWLAARA; TPO-MIMETIC PEPTIDES) [compound 21] | maintained high bioactivity; also recorded: activity comparable to that of the —(G)8— linked analog | –
peptide 19: PEGylated peptide (SEQ ID NO: 3); Lys side chain in linker modified by 5 kDa PEG (IEGPTLRQWLAARAGGGK(PEG 5 kDa)GGGGIEGPTLRQWLAARA) | even higher in vitro bioactivity as compared to their unpegylated counterparts | –
